Measured values as given in the supplement of paper PMC11136658.

Test system: peptide library, one residue held at a place counted from the Y acceptor
Assay: relative phosphorylation of the sub-library (ratio to the mean residue at this position); higher = residue favoured
Summary of the method: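 Every value reflects phosphorylation relative to the mean randomized residue. The sum of the 18 randomized residues, or 16 in the Ser/Thr-free library, served to normalize intensities at each position, which were then multiplied by that number. Intensities came from phosphorimaging with ImageQuant of biotinylated Tyr-centred peptides captured on streptavidin membranes after 90 min with purified recombinant kinases and 50 μM ATP plus γ-32P-ATP.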

MKK6, construct: Full length, human (from UniProt P52564)
relative phosphorylation
Details | at +1 | at +2 | at +3 | at +4 | at +5 | at -1 | at -2 | at -3 | at -4 | at -5
A fixed | 0.98 | 0.864 | 0.898 | 0.991 | 0.809 | 1.01 | 0.924 | 1.01 | 1.08 | 1.07
D fixed | 1.16 | 1.47 | 1.16 | 1.39 | 1.26 | 1.56 | 1.38 | 1.17 | 1.2 | 1.25
E fixed | 1.18 | 1.32 | 1.29 | 1.24 | 1.3 | 1.41 | 1.31 | 1.03 | 1.18 | 1.22
F fixed | 0.736 | 1.04 | 1.08 | 1.11 | 1.06 | 0.746 | 0.926 | 1.05 | 0.926 | 1.03
G fixed | 1.45 | 0.959 | 0.966 | 1.04 | 1.06 | 1.31 | 0.972 | 0.972 | 1.21 | 1.04
H fixed | 0.977 | 1.01 | 0.93 | 1.02 | 0.997 | 1.08 | 1.08 | 1.01 | 1.04 | 1.1
I fixed | 0.66 | 0.709 | 0.711 | 0.742 | 0.819 | 0.643 | 0.668 | 0.746 | 0.718 | 0.798
K fixed | 0.807 | 0.912 | 0.926 | 0.872 | 0.845 | 0.724 | 0.915 | 1.02 | 0.841 | 0.922
L fixed | 0.816 | 0.825 | 0.76 | 0.83 | 0.896 | 0.814 | 0.819 | 0.859 | 0.904 | 0.791
M fixed | 0.975 | 0.862 | 0.925 | 0.897 | 0.928 | 0.891 | 0.891 | 0.855 | 0.886 | 0.796
N fixed | 1.11 | 0.973 | 1 | 0.958 | 1.03 | 1.09 | 1.19 | 1.12 | 0.966 | 1.16
P fixed | 1.18 | 1.03 | 1.12 | 1.2 | 1.05 | 1.03 | 0.989 | 0.851 | 1.09 | 1.03
Q fixed | 1.02 | 0.887 | 0.978 | 0.934 | 1.08 | 1.11 | 1.01 | 1.25 | 1.07 | 1.01
R fixed | 1.05 | 0.781 | 0.921 | 0.867 | 0.93 | 0.76 | 0.866 | 1.19 | 0.955 | 0.928
V fixed | 0.738 | 0.797 | 0.832 | 0.736 | 0.792 | 0.569 | 0.691 | 0.746 | 0.817 | 0.778
W fixed | 1.15 | 1.55 | 1.52 | 1.17 | 1.14 | 1.25 | 1.36 | 1.12 | 1.12 | 1.08
pThr fixed | 1.51 | 1.74 | 1.23 | 1.52 | 1.24 | 1.39 | 1.11 | 1.57 | 1.29 | 1.34
pTyr fixed | 1.13 | 1.18 | 1.3 | 1.36 | 1.41 | 1.85 | 1.21 | 1.33 | 1.1 | 1.26

MST1R (from UniProt Q04912)
relative phosphorylation
Details | at +1 | at +2 | at +3 | at +4 | at +5 | at -1 | at -2 | at -3 | at -4 | at -5
A fixed | 0.871 | 0.845 | 0.68 | 0.963 | 1.06 | 0.744 | 0.976 | 0.932 | 1.03 | 0.978
D fixed | 0.356 | 0.803 | 0.406 | 0.696 | 0.865 | 1.38 | 1.03 | 1.2 | 1.02 | 0.894
E fixed | 0.55 | 0.767 | 0.281 | 0.622 | 0.874 | 1.01 | 0.864 | 1.06 | 0.966 | 0.851
F fixed | 1.62 | 0.938 | 1.28 | 1.1 | 0.582 | 1.06 | 0.794 | 0.996 | 1.1 | 1.1
G fixed | 0.645 | 0.821 | 0.766 | 1.17 | 1.25 | 0.665 | 1.38 | 1.21 | 1.25 | 1.13
H fixed | 1.3 | 0.906 | 0.968 | 1.11 | 1.03 | 1.12 | 0.938 | 0.991 | 0.847 | 0.989
I fixed | 1.51 | 1 | 2.14 | 0.923 | 0.473 | 1.36 | 0.957 | 0.801 | 0.85 | 0.932
K fixed | 0.618 | 1.14 | 0.612 | 0.921 | 1.66 | 0.806 | 1.04 | 1 | 1.08 | 1.13
L fixed | 1.32 | 1.15 | 1.67 | 0.924 | 0.626 | 1.29 | 0.903 | 0.937 | 1.04 | 1.07
M fixed | 1.15 | 0.99 | 1.32 | 1.1 | 0.715 | 0.904 | 0.685 | 0.845 | 0.941 | 0.974
N fixed | 0.594 | 1.13 | 0.492 | 0.82 | 1.23 | 1.25 | 0.978 | 1.01 | 0.796 | 0.864
P fixed | 0.672 | 0.967 | 1.17 | 1.03 | 1.57 | 0.768 | 1.31 | 1.09 | 1.16 | 1.07
Q fixed | 1.04 | 0.996 | 0.577 | 1.04 | 1.16 | 0.977 | 1.07 | 1.01 | 0.996 | 0.946
R fixed | 0.922 | 1.3 | 0.862 | 1.34 | 1.75 | 0.757 | 1.28 | 1.18 | 1.09 | 1.18
S fixed | 0.901 | 0.95 | 0.712 | 0.897 | 1.25 | 0.777 | 1.23 | 1.2 | 0.87 | 0.974
T fixed | 0.876 | 0.792 | 0.623 | 0.85 | 1.17 | 0.899 | 0.973 | 0.91 | 0.821 | 0.884
V fixed | 1.46 | 1.04 | 1.36 | 0.901 | 0.579 | 1.15 | 1.02 | 0.728 | 0.89 | 0.939
W fixed | 1.36 | 1.2 | 1.41 | 1.34 | 0.575 | 0.762 | 0.77 | 0.997 | 0.953 | 0.953
pThr fixed | 0.564 | 0.981 | 0.277 | 0.414 | 0.638 | 1.16 | 1.02 | 0.95 | 0.758 | 0.795
pTyr fixed | 1.73 | 1.79 | 0.651 | 1.11 | 0.728 | 2.14 | 1.1 | 1.13 | 1.04 | 0.922
